Here are results for six molecules from US20140120095A1 (Boehringer Ingelheim, published 2014).

In assay [1] the target is T1, recombinant human VEGF165 (human, UniProt P15692-4 27-191, biotinylated in the competition assays).
T1 construct: Bought protein; also called hVEGF165; rhVEGF165
Put plainly: SPR Biacore, immobilised hVEGF165, two state reaction model. On the procedure: Samples are injected for 2 min and allowed to dissociate up to 20 min at a flow rate of 45 μl/min. In between sample injections, the chip surface is regenerated with 100 mM HCl. HBS-EP+(Hepes buffer pH7.4+EDTA) is used as running buffer. Binding curves are fitted using a Two State Reaction model by Biacore T100 Evaluation Software v2.0.1.
^{(a)}KD = kd1/kₐ₁ * (kd2/(kd2 + kₐ₂)) ^{(b)}Curves are fitted using a Two State Reaction model by Biacore T100 Evaluation Software v2.0.1
Target sequence in this assay (P15692 other isoform, or with tags, fused parts or gaps): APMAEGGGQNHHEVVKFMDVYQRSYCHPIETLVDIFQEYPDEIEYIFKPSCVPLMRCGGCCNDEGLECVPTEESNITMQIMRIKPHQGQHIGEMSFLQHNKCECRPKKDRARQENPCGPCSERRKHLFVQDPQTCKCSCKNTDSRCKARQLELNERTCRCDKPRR

Assay [2] deals with T1, recombinant human VEGF165. Put plainly: binding ELISA, coated rhVEGF165.
Target sequence in this assay (P15692 other isoform, or with tags, fused parts or gaps): as above
Assay [3] addresses T2, recombinant human VEGF121 (human, UniProt P15692-9 27-147).
T2 construct: also called rhVEGF121
T2 sequence (looked up): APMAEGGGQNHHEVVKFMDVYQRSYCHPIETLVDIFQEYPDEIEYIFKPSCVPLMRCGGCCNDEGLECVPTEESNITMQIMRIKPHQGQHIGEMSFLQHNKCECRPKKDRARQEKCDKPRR
Put plainly: binding ELISA, coated rhVEGF121. As to the method: Binding to recombinant human VEGF121 is assessed via a solid phase binding ELISA. […] Wells are blocked with a casein solution (1% in PBS).

Assay [4] concerns the target T3, VEGF (used to stimulate HUVEC cells) (UniProt P15692-4 27-191, limits assumed). The experiment in a line: cell-based or functional assay.
In assay [5] the target is T1, recombinant human VEGF165. The experiment in a line: AlphaScreen, hVEGF165/hVEGFR2-Fc competition. Further details: % inhibition: concentration or dose not given beside the values. On the procedure: (§1) Finally, streptavidin donor beads (20 μg/ml) are added and after 1 hour of incubation in the dark, fluorescence is measured on the Envision microplate reader.
Assay [6] deals with T1, recombinant human VEGF165. Put plainly: ELISA, hVEGF165/hVEGFR1-Fc competition. Further details: % inhibition: concentration or dose not given beside the values. In general terms: An ELISA detects its analyte on a solid surface through an enzyme-linked reagent.
Target sequence in this assay (P15692 other isoform, or with tags, fused parts or gaps): as the sequence (P15692 other isoform, or with tags, fused parts or gaps) above
In assay [7] the target is T4, recombinant mouse VEGF164 (mouse, UniProt Q00731-2 27-190, biotinylated as the labelled ligand of the mVEGF164/mVEGFR2 AlphaScreen).
T4 construct: also called mVEGF164; rmVEGF164
T4 sequence (looked up): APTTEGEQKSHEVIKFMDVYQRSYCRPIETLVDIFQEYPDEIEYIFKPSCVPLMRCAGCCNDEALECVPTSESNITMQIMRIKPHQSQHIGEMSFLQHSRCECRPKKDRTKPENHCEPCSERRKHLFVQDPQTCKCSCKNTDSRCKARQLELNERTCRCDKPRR
Put plainly: binding ELISA on coated recombinant mouse VEGF164 (Example 12.6), OD 450 nm. As to the method:
Cross-reactivity to mouse VEGF164 is determined using a binding ELISA. […] Wells are blocked with a casein solution (1% in PBS). […] A mouse VEGF164 reactive mAb is included as positive control.

The target of assay [8] is T3, VEGF (used to stimulate HUVEC cells). The experiment in a line: cell-based or functional assay. This is another data set of the same source.
Assay [9] has as its target T1, recombinant human VEGF165. The experiment in a line: ELISA, hVEGF165/hVEGFR2-Fc competition. Further details: % inhibition: concentration or dose not given beside the values.
The target in assay [10] is T1, recombinant human VEGF165. The experiment in a line: AlphaScreen, hVEGF165/hVEGFR1-Fc competition. Further details: % inhibition: concentration or dose not given beside the values. As to the method:
as §1
On the technique in general: In Alpha technology, singlet oxygen from a donor bead excites a nearby acceptor bead.
Target sequence in this assay (P15692 other isoform, or with tags, fused parts or gaps): as the sequence (P15692 other isoform, or with tags, fused parts or gaps) above

For assay [11], the target named is T1, recombinant human VEGF165. Put plainly: AlphaScreen, hVEGF165/hVEGFR2-Fc competition. As to the method:
as §1
Target sequence in this assay (P15692 other isoform, or with tags, fused parts or gaps): as the sequence (P15692 other isoform, or with tags, fused parts or gaps) above

Assay [12] addresses T1, recombinant human VEGF165. The experiment in a line: AlphaScreen, hVEGF165/hVEGFR1-Fc competition. On the procedure:
as §1
Target sequence in this assay (P15692 other isoform, or with tags, fused parts or gaps): as the sequence (P15692 other isoform, or with tags, fused parts or gaps) above

The target in assay [13] is T5, human DLL4, full length, overexpressed on cells (human, UniProt Q9NR61 27-685).
T5 construct: CHO cells in FMAT, HEK293 cells in the reporter assay; also called hDLL4; CHO-hDLL4
Put plainly: FMAT, hNotch1-Fc on CHO-hDLL4, -HSA.

Assay [14] concerns the target T1, recombinant human VEGF165. The experiment in a line: AlphaScreen, hVEGF165/hVEGFR1-Fc competition, -HSA.
Assay [15] deals with T5, human DLL4, full length, overexpressed …. The experiment in a line: FMAT, hNotch1-Fc on CHO-hDLL4, +25 uM HSA.
Assay [16] deals with T1, recombinant human VEGF165. Put plainly: AlphaScreen, hVEGF165/hVEGFR2-Fc competition, -HSA.
Assay [17] deals with T1, recombinant human VEGF165. The experiment in a line: AlphaScreen, hVEGF165/hVEGFR2-Fc competition, +5 uM HSA. On the procedure:
These 2 competition assays are also performed after preincubation of the VHHs with 5 μM human serum albumin.

T3 sequence (P15692 other isoform, or with tags, fused parts or gaps limits assumed): as the sequence (P15692 other isoform, or with tags, fused parts or gaps) above

B1: VEGFBII010 (VHH, not shown: small tags and cut ends)
chain: EVQLVESGGGLVQTGDSLRLSCEVSGRTFSSYSMGWFRQAQGKEREFVVAISKGGYKYDSVSLEGRFTISKDNAKNTVYLQINSLKPEDTAVYYCASSRAYGSSRLRLADTYEYWGQGTQVTVSSGGGGSGGGGSGGGGSGGGGSGGGGSGGGGSGGGGSEVQLVESGGGLVQTGDSLRLSCEVSGRTFSSYSMGWFRQAQGKEREFVVAISKGGYKYDSVSLEGRFTISKDNAKNTVYLQINSLKPEDTAVYYCASSRAYGSSRLRLADTYEYWGQGTQVTVSS
notes: Homodimeric bivalent anti-VEGF VHH; also called VEGFBII23B04-35GS-23B04
The Kd is the concentration at which binding is half-saturated. Usually EC50 stands for the concentration giving half of the maximal effect. A word on the % inhibition: it is how much of the control response was suppressed. For orientation: IC50 means the concentration at which inhibition is half-maximal. For the molecule B1, in assay [1], the Kd worked out at 0.16 nM, the ka1 turned out to be 450000 M⁻¹ s⁻¹, the ka2 is 0.029 s⁻¹ and the kd1 is 0.017 s⁻¹. In [1], the kd2 was found to be 0.00013 s⁻¹. The EC50 in assay [2] stood at 0.428 nM. Moreover, the EC50 in [3] came out at 0.92 nM. For the same molecule, in [4], the “% inhibition, VEGF HUVEC Erk phosphorylation assay” value was 92% and the “IC50, VEGF HUVEC Erk phosphorylation assay” value was 0.19 nM. Besides, in [5], the “% inhibition” value amounted to 100% and the half-inhibitory concentration (IC50) was 0.016 nM. Besides, in assay [6], the “% inhibition” value turned out to be 67% and the 50% inhibitory concentration (IC50) was 0.0735 nM. Besides, the binding result in assay [7] is given as “binds”. Besides, in [8], the “% inhibition, VEGF HUVEC proliferation assay” value was determined as 95% and the “IC50, VEGF HUVEC proliferation assay” value is 0.22 nM. In assay [9], the “% inhibition” value was found to be 100% and the IC50 turned out to be 0.049 nM. Moreover, in [10], the “% inhibition” value was 70% and the IC50 stood at 0.021 nM.

B2: VEGFBII025 (VHH, not shown: small tags and cut ends)
chain: EVQLVESGGGLVQAGGSLRLSCAASGRTFSNYAMGWFRQAPGKERVLVADISSSGINTYVADAVKGRFTISRDNAKNTVYLQMNSLKPEDTAVYYCAASAWWYSQMARDNYRYWGQGTQVTVSSGGGGSGGGGSGGGGSGGGGSGGGGSGGGGSGGGGSGGGGSEVQLVESGGGLVQTGDSLRLSCEVSGRTFSSYSMGWFRQAQGKEREFVVAISKGGYKYDSVSLEGRFTISKDNAKNTVYLQINSLKPEDTAVYYCASSRAYGSSRLRLADTYEYWGQGTQVTVSS
notes: Bivalent anti-VEGF VHH; also called VEGFBII10E07-40GS-23B04
Regarding B2, in assay [1], the Kd is 1.1 nM, the ka1 was found to be 330000 M⁻¹ s⁻¹, the ka2 is 0.018 s⁻¹ and the kd1 is 0.017 s⁻¹. Further, the kd2 in assay [1] is 0.00037 s⁻¹. Besides, in assay [2], the EC50 stood at 0.668 nM. In assay [3], the EC50 came out at 0.475 nM. Also, in assay [4], the “% inhibition, VEGF HUVEC Erk phosphorylation assay” value came to 99% and the “IC50, VEGF HUVEC Erk phosphorylation assay” value turned out to be 0.23 nM. Further, in assay [5], the “% inhibition” value worked out at 100% and the IC50 came out at 0.051 nM. For the same molecule, the IC50 in assay [11] was 0.051 nM. Also, in assay [7], the binding result was “binds”. Besides, in assay [9], the “% inhibition” value was found to be 100% and the IC50 is 0.577 nM. Further, in assay [10], the “% inhibition” value is 82% and the concentration for half-maximal inhibition (IC50) amounted to 0.071 nM. For the same molecule, in assay [12], the “% inhibition” value is 82% and the IC50 stood at 0.039 nM.

B3: VEGFDLLBII001 (bispecific antibody)
chain: EVQLVESGGGLVQAGGSLRLSCAASGRTFSSYAMAWFRQAPGKEREFVAAIRWSGGTAYYADSVQGRFTISRDNAKNTVYLQMNSLKPEDTAVYYCANRAADTRLGPYEYDYWGQGTQVTVSSGGGGSGGGGSGGGGCGGGGSGGGGSGGGGSGGGGSEVQLVESGGGLVQTGDSLRLSCEVSGRTFSSYSMGWFRQAQGKEREFVVAISKGGYKYDSVSLEGRFTISKDNAKNTVYLQINSLKPEDTAVYYCASSRAYGSSRLRLADTYEYWGQGTQVTVSS
modifications: PEGylated at the Cys at position 15 of the 35 Gly-Ser linker
notes: DLLBII101G08 - 35GS(Cys15) - VEGFBII23B04
On to B3, for which the concentration for half-maximal inhibition (IC50) turned out to be 128 nM in [13]; 1.58 nM in assay [14]; 122 nM in [15]; 0.64 nM in assay [16]; 0.64 nM in assay [17]. In addition, the “% inh” value in assay [14] was 69%; in assay [16] it was 100%; in assay [17] it was 100%.

B4: VEGFDLLBII002 (bispecific antibody)
chain: EVQLVESGGGLVQTGDSLRLSCEVSGRTFSSYSMGWFRQAQGKEREFVVAISKGGYKYDSVSLEGRFTISKDNAKNTVYLQINSLKPEDTAVYYCASSRAYGSSRLRLADTYEYWGQGTQVTVSSGGGGSGGGGSGGGGCGGGGSGGGGSGGGGSGGGGSEVQLVESGGGLVQAGGSLRLSCAASGRTFSSYAMAWFRQAPGKEREFVAAIRWSGGTAYYADSVQGRFTISRDNAKNTVYLQMNSLKPEDTAVYYCANRAADTRLGPYEYDYWGQGTQVTVSS
modifications: PEGylated at the Cys at position 15 of the 35 Gly-Ser linker
notes: VEGFBII23B04 - 35GS(Cys15) - DLLBII101G08
Take B4: the IC50 is 106 nM in [13]; 0.36 nM in assay [14]; 120 nM in assay [15]; 0.2 nM in assay [16]; 0.24 nM in assay [17]. The “% inh” value in assay [14] came out at 64%; in [16] it was 100%; in assay [17], 100%.

B5: DLLBII101G08 (VHH, not shown: small tags and cut ends)
VHH: EVQLVESGGGLVQAGGSLRLSCAASGRTFSSYAMAWFRQAPGKEREFVAAIRWSGGTAYYADSVQGRFTISRDNAKNTVYLQMNSLKPEDTAVYYCANRAADTRLGPYEYDYWGQGTQVTVSS
notes: Anti-DLL4 VHH; also called 101G8
As to B5, the figures for the 50% inhibitory concentration (IC50) in assay [13] and in assay [15] were 31 nM and 30.1 nM, respectively.

B6: VEGFBII024 (VHH, not shown: small tags and cut ends)
chain: EVQLVESGGGLVQTGDSLRLSCEVSGRTFSSYSMGWFRQAQGKEREFVVAISKGGYKYDSVSLEGRFTISKDNAKNTVYLQINSLKPEDTAVYYCASSRAYGSSRLRLADTYEYWGQGTQVTVSSGGGGSGGGGSGGGGSGGGGSGGGGSGGGGSGGGGSGGGGSEVQLVESGGGLVQAGGSLRLSCTASGSAFKSYRMGWFRRTPGKEDEFVASISWTYGSTFYADSVKGRFTMSRDKAKNAGYLQMNSLKPEDTALYYCAAGAQSDRYNIRSYDYWGQGTQVTVSS
notes: Bivalent anti-VEGF VHH; also called VEGFBII23B04-40GS-86H09
For B6, in assay [1], the Kd amounted to 0.47 nM, the ka1 is 300000 M⁻¹ s⁻¹, the ka2 was 0.026 s⁻¹ and the kd1 worked out at 0.013 s⁻¹. Further, in [1], the kd2 was found to be 0.00028 s⁻¹. Further, the EC50 in [2] was 0.32 nM. In addition, the EC50 in assay [3] stood at 0.325 nM. In [4], the “% inhibition, VEGF HUVEC Erk phosphorylation assay” value came to 94% and the “IC50, VEGF HUVEC Erk phosphorylation assay” value was found to be 0.23 nM. For the same molecule, in assay [5], the “% inhibition” value was found to be 100% and the IC50 was 0.05 nM. The IC50 in assay [11] came to 0.012 nM. In assay [6], the “% inhibition” value came out at 92% and the IC50 worked out at 0.326 nM. The binding result in assay [7] is recorded as “binds”. Moreover, in [8], the “% inhibition, VEGF HUVEC proliferation assay” value was 96% and the “IC50, VEGF HUVEC proliferation assay” value amounted to 0.38 nM. Further, in [9], the “% inhibition” value came out at 100% and the IC50 is 0.292 nM. Besides, in assay [10], the “% inhibition” value stood at 98% and the IC50 was 0.069 nM. Moreover, in assay [12], the “% inhibition” value amounted to 100% and the IC50 came to 0.046 nM.
